Columns and labels:
Type in all cases: biochemical
[1] = Detection of β-diketone hydrolyzing activity (acetone from 2,4-pentanedione by gas chromatography); design: key: Yes: Acetone, a product by the hydrolysis, was qualitatively detected; settings: qualitative
From the text: As shown in the above (2), the PVA-degrading enzyme of the present invention has an activity of hydrolyzing […]-diketone, i.e., […]-diketone-hydrolyzing activity. Enzymes having β-diketone-hydrolyzing activity can hydrolyze an oxidized PVA having a […]-diketone structure (i.e., oxidized PVA). Beta-diketone-hydrolyzing activity can be detected by examining the activity of hydrolyzing 2, 4-pentanedione which is a model compound of oxidized PVA having a […]-diketone structure. Acetone and acetic acid are formed when a PVA-degrading enzyme hydrolyzes 2,4-pentanedione. Therefore, for example, […]-diketone-hydrolyzing activity can be detected by the following method using 2,4-pentanedione as a substrate.
2,4-Pentanedione (Reagent grade, commercialized by Wako Pure Chemical Industries Co., Ltd., Osaka, Japan) was added to 50 mM sodium phosphate buffer (pH 7.0) to give a concentration of 0.2% (w/v) to make into a substrate solution. To 1 mL of the substrate solution, 0.2 mL of enzyme solution and 0.8 mL of 50 mM sodium phosphate buffer (pH 7.0) were added and then the mixture was shaken at 27° C. for 3 hours for the reaction. After the reaction, 2 mL of the reaction mixture was withdrawn and put in a glass vial, and then the vial was sealed and heated at 95° C. for 40 min. […]

[2] = PVA-degrading (viscosity-reducing) activity; settings: at each purification step
Experimental: While, activity as a PVA-degrading enzyme can be measured, for example, by measuring the viscosity reduction of a PVA solution, caused by the degradation of PVA, as an index using the following method.
To 0.5 mL of a substrate solution prepared by dissolving PVA (Reagent grade polyvinyl alcohol, polymerization degree: 2,000, Nacalai Tesque Inc., Kyoto, Japan) into 100 mM sodium phosphate buffer (pH 7.0) to give a concentration of 2% (w/v), 15 µL of 2% (w/v) of sodium azide solution was added, and then 0.5 mL of an enzyme solution is further added and reacted with shaking at 27° C. for 60 min. After the reaction, 0.6 mL of the reaction mixture was withdrawn and its viscosity was measured using a Cone plate-type viscometer (“DV-II+Pro”, Brookfield Co., Ltd.) at 30° C. Separately, the enzyme solution was added to the substrate solution and the viscosity was measured immediately, and the viscosity was used as that at zero-min reaction. The PVA-degrading activity was calculated based on the following formula. One unit of the PVA-degrading activity was defined as the amount of enzyme that causes a 10%-reduction of relative viscosity per min under the above conditions. […]

[3] = Degradation of PVA by PVA-degrading enzyme: time course of viscosity of reaction mixture; settings: for Viscosity of reaction mixture: 35° C.
Experimental: Using the purified enzyme preparation of PVA-A obtained by the method of Experiment 2, the enzyme preparations varying the amount of enzyme were allowed to act on substrate solutions varying in PVA concentration, and the time course of the degradation of PVA was investigated by measuring the reduction of viscosity of the reaction mixture.
PVA as a substrate (Reagent grade polyvinyl alcohol, polymerization degree: 2,000, commercialized by Nacalai Tesque Inc., Kyoto, Japan), 50 mM sodium phosphate buffer (pH 7.0), and the purified enzyme solution of PVA-A dissolved in the same buffer were mixed, and the reaction mixtures (volume: 1 mL) with the final concentration of PVA of 1%, 4% or 10% (w/v), and the amount of PVA-A per 1 g-PVA of 1 (or 1.25), 5 or 10 units as PVA-oxidizing activity was prepared. Then, those reaction mixtures in plastic tubes were reacted with shaking at 160 rpm at 35° C. for 1, 4 or 20 hours. In each PVA concentration, a reaction mixture prepared by substituting the enzyme solution to 50 mM phosphate buffer (pH 7.0) was used as control (the amount of enzyme: zero unit). To viscosity measurement using “DV-II+Pro”, a cone-plate viscometer manufactured by Brookfield, Boston, USA, 0.6 mL of a reaction mixture obtained by reacting under each condition was subjected.

B1: PVA-A: purified PVA-degrading hybrid enzyme from Pseudomonas sp. VT1B strain, amino acid sequence of SEQ ID NO: 2 (protein, listed as Pseudomonas sp.)
chain: AENWPMFGKNYENTRATSDTQISTANISTLNVVRRTTDGGITGTPTVVDGVAYYSDFSGYVKAVRVSDGVVLWRVRPQTTMLSPSPFVTADTVYVAGNNSYVYALNRANGAVRWTTQIETSPNSRISSSPIVVGNILIIGTGSYQVFLPATPMFRGRVAFLNATTGAILPYSTNMCPSASCGGGISVWSTAAIDESTRTGYIGTGQAYRDPAGPYSDALVAFNIDTGAIRWARQFLANDVYQLGGTLRYDYDVGAAPNLFVANGQRMVGVGGKDGTYRAFNRDTGAPIWNTPVGRGSAIGGVMQSTAYGDGRIYVTSNTSTIGSGRNDPVPATAEASALDAATGAPVWIRQLDAGGFGGVAYANGLMYASTWDGRLRVFNAANGNIVREVQVSPSRGAYVPAPTDGFPNGSAGGPVVYGNRVLMGYGWTWVLNINGGLTTMEATVGGGASQTVTLASSSDTYVQSGTPTTNYAYDVNLLARLADAEGLTRASFLQFPLTAVPAGTITSARLRLYGRHDAPTGTGQSVSVWPGTKTTTWSGPNVTYNNSSTETGVDFYATSSIATATVGITPQYYEWNVTDYVASRRSLGHATFGVAVNSAHQYRVTLNSADNTANRPELVVTVSGGTGSQLPGSCPSGFTARAGVNQGFMHNGVARGFVLNVPANVSTPRPVFVSLTGSVESTNENLGARGGAGALNNDGFLVIGPVRRCAGQDPNGAGTSVNGGTCNQAGTGGWNWNPWNEGRVFAAAGDPWKTAEGPDSQFLEAVVRCVAASYPVDSTRMYLGGISSGATMTHRALLFNSDFWAGGLPLSGEWYVSQDNGTAYPGADEFAARRQAVINNPTKIFQGRVGPLPLPATQSPMIVISMWGGANDIWYCGSTLCADYRPSTQAASNYFSALPNVVHVACSSSHGHQWPTQNRAAFNTWAATTLASHPKGTPASSFVLPPPPAGYSCRVGRYTDHYSGT
[1]
  2,4-Pentanedione-Degrading Activity: Yes*
[2]
  Total PVA-Degrading Activity (Viscosity-reducing Activity): 8.2 U
[3]; PVA 1% (w/v), 1.25 U/g-PVA, 0 hour
  Viscosity of reaction mixture: 2.7 mPa·s
[3]; PVA 1% (w/v), 1.25 U/g-PVA, 1 hour
  Viscosity of reaction mixture: 2.3 mPa·s
[3]; PVA 1% (w/v), 1.25 U/g-PVA, 4 hours
  Viscosity of reaction mixture: 1.7 mPa·s
[3]; PVA 1% (w/v), 1.25 U/g-PVA, 20 hours
  Viscosity of reaction mixture: 1.4 mPa·s
[3]; PVA 1% (w/v), 5 U/g-PVA, 0 hour
  Viscosity of reaction mixture: 2.5 mPa·s
[3]; PVA 1% (w/v), 5 U/g-PVA, 1 hour
  Viscosity of reaction mixture: 1.6 mPa·s
[3]; PVA 1% (w/v), 5 U/g-PVA, 4 hours
  Viscosity of reaction mixture: 1.3 mPa·s
[3]; PVA 1% (w/v), 5 U/g-PVA, 20 hours
  Viscosity of reaction mixture: 1.2 mPa·s
[3]; PVA 1% (w/v), 10 U/g-PVA, 0 hour
  Viscosity of reaction mixture: 2.7 mPa·s
[3]; PVA 1% (w/v), 10 U/g-PVA, 1 hour
  Viscosity of reaction mixture: 1.4 mPa·s
[3]; PVA 1% (w/v), 10 U/g-PVA, 4 hours
  Viscosity of reaction mixture: 1.3 mPa·s
[3]; PVA 1% (w/v), 10 U/g-PVA, 20 hours
  Viscosity of reaction mixture: 1.2 mPa·s
[3]; PVA 4% (w/v), 1 U/g-PVA, 0 hour
  Viscosity of reaction mixture: 34.0 mPa·s
[3]; PVA 4% (w/v), 1 U/g-PVA, 1 hour
  Viscosity of reaction mixture: 35.6 mPa·s
[3]; PVA 4% (w/v), 1 U/g-PVA, 4 hours
  Viscosity of reaction mixture: 18.6 mPa·s
[3]; PVA 4% (w/v), 1 U/g-PVA, 20 hours
  Viscosity of reaction mixture: 6.6 mPa·s
[3]; PVA 4% (w/v), 5 U/g-PVA, 1 hour
  Viscosity of reaction mixture: 30.3 mPa·s
[3]; PVA 4% (w/v), 5 U/g-PVA, 4 hours
  Viscosity of reaction mixture: 11.9 mPa·s
[3]; PVA 4% (w/v), 5 U/g-PVA, 20 hours
  Viscosity of reaction mixture: 3.7 mPa·s
[3]; PVA 4% (w/v), 5 units, 20 hours
  viscosity after reaction relative to the start of the reaction: about 1/10
[3]; PVA 10% (w/v), 1 U/g-PVA, 0 hour
  Viscosity of reaction mixture: 2530 mPa·s
[3]; PVA 10% (w/v), 1 U/g-PVA, 1 hour
  Viscosity of reaction mixture: 1490 mPa·s
[3]; PVA 10% (w/v), 1 U/g-PVA, 4 hours
  Viscosity of reaction mixture: 1550 mPa·s
[3]; PVA 10% (w/v), 1 U/g-PVA, 20 hours
  Viscosity of reaction mixture: 873 mPa·s
[3]; PVA 10% (w/v), 5 U/g-PVA, 1 hour
  Viscosity of reaction mixture: 1520 mPa·s
[3]; PVA 10% (w/v), 5 U/g-PVA, 4 hours
  Viscosity of reaction mixture: 769 mPa·s
[3]; PVA 10% (w/v), 5 U/g-PVA, 20 hours
  Viscosity of reaction mixture: 231 mPa·s
[3]; PVA 10% (w/v), 5 units per 1 g of PVA, 20 hours
  viscosity after reaction relative to the start of the reaction: about 1/10

— US11859229B2, “Polyvinyl alcohol-degrading enzyme and process for producing the same” (Hayashibara Co., Ltd., priority 2017, dated 2024)
